PMC6222199, “Regulatory Targets of the Response Regulator RR_1586 from Clostridioides difficile Identified Using a Bacterial One-Hybrid Screen”

Target: RR_1586 D50G (Clostridioides difficile R20291, UniProt A0A9R0BKD1 1-223, D50G)
Experiment: EMSA; 10 mM Mg2+; phosphoramidate; EMSA: 5 pmol DNA in 10 ul (500 nM), 10 mM Tris pH 8, 50 mM NaCl, 10 mM MgCl2, room temperature 10 min; 10% PAGE 0.5x TBE on ice, ethidium bromide
Conditions: protein: recombinant; tags: His6; chain copies: 2; blunt

B1: CDR20291_1583 site (dsDNA)
DNA 1: AGGAATTAAGGAGCAATTAAATGATG
DNA 2: CATCATTTAATTGCTCCTTAATTCCT
binding result: binds
